Experimental data taken from PMC9897490.
pKd: −log10 of the molar value.

Target: FtsZ (wild type, Caulobacter crescentus) (Caulobacter crescentus)
Experiment: BLI

Chain of FtsZ (wild type, Caulobacter crescentus) (Caulobacter crescentus) (B8H080 whole entry): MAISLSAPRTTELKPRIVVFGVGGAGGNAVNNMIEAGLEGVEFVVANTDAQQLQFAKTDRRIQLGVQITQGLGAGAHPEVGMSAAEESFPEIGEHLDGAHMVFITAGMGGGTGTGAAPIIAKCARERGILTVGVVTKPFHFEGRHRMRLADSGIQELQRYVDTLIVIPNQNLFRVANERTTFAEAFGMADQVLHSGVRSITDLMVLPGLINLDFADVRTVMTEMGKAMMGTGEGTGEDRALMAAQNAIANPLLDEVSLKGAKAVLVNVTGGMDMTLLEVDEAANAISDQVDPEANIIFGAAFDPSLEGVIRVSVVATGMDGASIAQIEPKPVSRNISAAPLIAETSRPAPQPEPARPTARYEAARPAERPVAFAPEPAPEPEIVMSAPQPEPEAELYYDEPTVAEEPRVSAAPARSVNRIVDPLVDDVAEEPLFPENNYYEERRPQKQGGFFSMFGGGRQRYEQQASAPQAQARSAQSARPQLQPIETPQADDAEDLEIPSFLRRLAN

pKd: 4.96
Substance: MipZ-His6 (wild type) (enzyme)
